Experimental data as given in article PMC6148051, “p53 cooperates with SIRT6 to regulate cardiolipin de novo biosynthesis” (Cell Death & Disease, 2018).

Target: T1, His-tagged p53 protein (UniProt P04637 1-393)
T1 construct: tumor suppressor p53, cloned into pET28b+; also called His-p53; source: bacteria (pET28b+), purified (Ni(II)-Sepharose)
Test: pull-down; GST or GST fusion proteins on glutathione-Sepharose 4B beads incubated with purified His-tagged proteins in TEN buffer (10 mM Tris-HCl, pH 8.0, 1 mM EDTA, 100 mM NaCl), 4 h, 4 °C; blot with anti-His or anti-GST, Coomassie staining
Settings: both partners purified

T1 sequence (P04637 whole entry): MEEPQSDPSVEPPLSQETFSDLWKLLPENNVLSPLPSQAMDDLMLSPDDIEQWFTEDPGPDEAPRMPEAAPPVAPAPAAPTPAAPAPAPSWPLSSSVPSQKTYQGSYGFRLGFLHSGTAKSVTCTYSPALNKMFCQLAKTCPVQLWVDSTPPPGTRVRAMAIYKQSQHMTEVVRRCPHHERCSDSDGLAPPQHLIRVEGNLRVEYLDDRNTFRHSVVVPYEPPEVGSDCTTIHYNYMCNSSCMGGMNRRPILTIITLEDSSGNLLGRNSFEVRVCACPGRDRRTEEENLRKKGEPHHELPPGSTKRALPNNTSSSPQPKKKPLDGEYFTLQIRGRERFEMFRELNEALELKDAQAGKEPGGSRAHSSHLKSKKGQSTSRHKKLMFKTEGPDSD

binding result: binds
B1: GST-SIRT6 core domain, 35–276 aa (domain or fragment, UniProt Q8N6T7 35-276, looked up)
chain: WELARLVWQSSSVVFHTGAGISTASGIPDFRGPHGVWTMEERGLAPKFDTTFESARPTQTHMALVQLERVGLLRFLVSQNVDGLHVRSGFPRDKLAELHGNMFVEECAKCKTQYVRDTVVGTMGLKATGRLCTVAKARGLRACRGELRDTILDWEDSLPDRDLALADEASRNADLSITLGTSLQIRPSGNLPLATKRRGGRLVIVNLQPTKHDRHADLRIHGYVDEVMTRLMKHLGLEIPAW
notes: source: bacteria, purified (glutathione-Sepharose 4B)
